{
  "source": "paper PMC11281341",
  "origin": "cited, not measured here",
  "target": "HIV-1 capsid protein (CA) CA (Human immunodeficiency virus 1) (UniProt O93182)",
  "sequence (O93182 133-363)": "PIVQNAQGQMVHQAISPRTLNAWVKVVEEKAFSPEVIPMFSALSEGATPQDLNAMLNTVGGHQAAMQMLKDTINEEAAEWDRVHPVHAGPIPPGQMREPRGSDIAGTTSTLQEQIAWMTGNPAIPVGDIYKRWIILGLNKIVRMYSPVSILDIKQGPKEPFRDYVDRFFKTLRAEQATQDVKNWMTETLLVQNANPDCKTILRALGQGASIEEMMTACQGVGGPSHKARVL",
  "data": [
    {"substance": "TRIM5alpha SPRY (from UniProt Q0PF16)", "values": [
      {"measurement": "Kd", "result": "> 1000", "unit": "µM"}
    ]}
  ]
}
